According to patent US20050004013A1 (Scripps Research, published 2005):
Bridges are numbered along the chain shown (N, C = ends). Where no end group is shown, it is not given here.

T1: mouse R-cadherin fused to Red Fluorescent Protein, on stably transfected L-cells (mouse, UniProt P39038 167-913)
T1 sequence (looked up): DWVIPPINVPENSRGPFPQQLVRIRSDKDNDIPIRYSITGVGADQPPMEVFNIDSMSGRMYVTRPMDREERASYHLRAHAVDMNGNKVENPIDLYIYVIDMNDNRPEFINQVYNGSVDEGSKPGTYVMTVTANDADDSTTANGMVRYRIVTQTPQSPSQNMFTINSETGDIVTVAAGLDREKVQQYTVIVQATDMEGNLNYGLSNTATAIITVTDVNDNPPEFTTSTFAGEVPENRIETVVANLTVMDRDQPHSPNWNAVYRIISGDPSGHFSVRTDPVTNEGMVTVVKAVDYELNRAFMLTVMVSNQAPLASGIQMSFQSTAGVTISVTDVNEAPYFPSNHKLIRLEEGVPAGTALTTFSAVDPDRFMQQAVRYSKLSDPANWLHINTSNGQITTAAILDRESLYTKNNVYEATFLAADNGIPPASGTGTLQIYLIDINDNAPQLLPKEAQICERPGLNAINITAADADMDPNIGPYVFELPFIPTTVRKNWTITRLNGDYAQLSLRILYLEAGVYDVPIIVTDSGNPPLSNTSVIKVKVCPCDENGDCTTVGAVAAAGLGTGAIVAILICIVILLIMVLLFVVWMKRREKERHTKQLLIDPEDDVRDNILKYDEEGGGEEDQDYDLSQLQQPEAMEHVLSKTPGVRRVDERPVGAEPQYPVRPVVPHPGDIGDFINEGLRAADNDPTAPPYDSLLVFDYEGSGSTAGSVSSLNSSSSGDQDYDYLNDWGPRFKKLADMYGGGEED

T2: mouse N-cadherin fused to Red Fluorescent Protein, on stably transfected L-cells (mouse, UniProt P15116 160-906)
T2 sequence (looked up): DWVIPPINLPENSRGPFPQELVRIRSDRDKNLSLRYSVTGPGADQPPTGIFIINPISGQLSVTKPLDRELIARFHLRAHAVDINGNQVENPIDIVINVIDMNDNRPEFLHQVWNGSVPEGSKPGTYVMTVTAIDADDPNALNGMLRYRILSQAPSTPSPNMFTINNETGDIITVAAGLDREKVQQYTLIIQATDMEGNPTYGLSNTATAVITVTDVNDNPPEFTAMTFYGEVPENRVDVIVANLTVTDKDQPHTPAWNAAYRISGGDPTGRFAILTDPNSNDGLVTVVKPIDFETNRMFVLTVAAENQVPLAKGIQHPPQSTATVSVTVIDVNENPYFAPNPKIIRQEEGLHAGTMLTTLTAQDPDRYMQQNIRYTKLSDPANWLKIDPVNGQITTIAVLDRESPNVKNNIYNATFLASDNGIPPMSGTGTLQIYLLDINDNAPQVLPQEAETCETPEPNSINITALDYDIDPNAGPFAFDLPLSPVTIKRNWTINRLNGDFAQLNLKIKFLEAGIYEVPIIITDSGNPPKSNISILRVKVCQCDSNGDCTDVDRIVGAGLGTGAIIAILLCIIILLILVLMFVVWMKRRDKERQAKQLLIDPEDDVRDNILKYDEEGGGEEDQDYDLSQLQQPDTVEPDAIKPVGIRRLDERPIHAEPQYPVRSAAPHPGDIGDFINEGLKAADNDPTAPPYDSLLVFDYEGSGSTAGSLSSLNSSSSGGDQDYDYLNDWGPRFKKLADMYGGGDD


How the values were obtained:
[1] = biological target: T1, mouse R-cadherin fused to Red …; experiment: cell-based or functional assay
[2] = biological target: T2, mouse N-cadherin fused to Red …; experiment: cell-based or functional assay

Row | Binder | IC50 of inhibition of R-cadherin mediated L-cell adhesion (aggregation) [1] [µM] | effectiveness relative to cyclic IDS in the aggregation assay [1] [fold lower] | IC50 of inhibition of R-cadherin mediated L-cell aggregation [1] [µM] | IC50 of inhibition of N-cadherin mediated L-cell aggregation [2] [µM]
1 | IDSMSGR (not fully specified) [IDSMSGR (SEQ ID NO: 2)] | ~900 | ~3 |  | 
2 | CIDSC (disulfide 1-5; not fully specified) [cyclic CIDSC (SEQ ID NO: 8)] |  |  | ~300 | 
3 | CHAVC (disulfide 1-5) [cyclic HAV peptide (CHAVC, SEQ ID NO: 20)] |  |  | 150 to 200 | 150 to 200
4 | CINPC (disulfide 1-5; not fully specified) [cyclic CINPC (SEQ ID NO: 9)] |  |  |  | < 300
